Experimental data: publication PMC9367177

Target: CC12.1 (human)
Experiment: SPR

Chain of CC12.1 (human) (heavy, as listed by the source, chain 1 of 2): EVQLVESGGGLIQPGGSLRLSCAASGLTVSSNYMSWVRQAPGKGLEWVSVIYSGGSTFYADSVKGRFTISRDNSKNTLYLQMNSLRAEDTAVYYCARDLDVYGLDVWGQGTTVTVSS
Chain of CC12.1 (human) (light, as listed by the source, chain 2 of 2): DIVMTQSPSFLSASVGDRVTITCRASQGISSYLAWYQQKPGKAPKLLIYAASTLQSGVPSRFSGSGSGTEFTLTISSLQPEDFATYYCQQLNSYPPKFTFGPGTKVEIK

Substance: SARS-CoV-2 RBD Alpha (B.1.1.7) (from UniProt P0DTC2) (domain or fragment)
- Kd: 14.4 nM
